Assay results: the domain aggregation screens of Martell et al. (2025)

Assay: soluble fraction after stress (log2 fold change); higher = more stays soluble; pooled small domains, quantitative proteomics
Conditions: stress: pH 4
Outline: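 Values are log2 fold changes, and higher ones mean more of the domain stayed soluble. Each fold change reflects the soluble amount of a domain after acid stress and is taken as a measure of aggregation propensity. The stress was pH 4, applied to pooled custom libraries of small protein domains analysed by high-throughput quantitative proteomics.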
In the case of “HMFWRKIDFYGLNLSTYRNIINIGSDYNYIYLDLGNIYKILNPITGKIIEEQDLVMNIDNINWSS”, the “soluble fraction (log2)” value is reported as -0.105. In the case of “HMFYNDLINFDVFRDSRKIGKIENINSRLPQPVFEIMYDSRIVLIPIHEDFIRKIDKVNNIIYLDIPDGLL”, the “soluble fraction (log2)” value is reported as -1.69. In the case of “HMGAAFITSSKDNAINIRQSANTDSKVIETVTNGQILESNEKSGEWHKVTYYDNDIKKSFTGYVHEGQLK”, the “soluble fraction (log2)” value is reported as -0.129. With “HMGAAIEYGDRGNTVLQAQRLLIARGYMAGSADGIYGRQMEQAVKRFQKEQGLPESGVVDRRTLQVLIRSR” the “soluble fraction (log2)” value was 0.04. With “HMGAARRFEMSEGGSQKFWEVAVEGPALTVRFGKLGTAGTTQTKTLASAEAAAKEADKLVREKTKKGYAP” the “soluble fraction (log2)” value was -0.596. With “HMGAATQADIARVQELLNRLGYDAGSPDGLMGPRTRDAILEYQLTEGLETTGTVTRETLASLEARL” the “soluble fraction (log2)” value was -0.939. For “HMGAGFREAIPPALDGERIDRVVSLLAYVSRNRAAGALAAGSVSVDGEVVFQRSRRVREGEELVVTGFERE”, the “soluble fraction (log2)” value was -0.427. With “HMGAITGLQSRVAFLKGQGTITDAEAKTAMAFLPDPTDSKEVKIAKIGQAREYIMSLIENRA” the “soluble fraction (log2)” value was -0.0578. With “HMGAIVTGTVVEIRSDVVIVNAGLKSEGVVPIEQFRNEAGELEVSVGDEVKVALDALEDGFGETRLS” the “soluble fraction (log2)” value was -1.97. With “HMGAIVTVPDLAGRPQPGAEAELRRSGLVPKVRTSYSLTGTRGTVISQTPPAGSRVREGAEVEVVVSRGLN” the “soluble fraction (log2)” value was 0.0493. With “HMGAKLTTAQGGTLKVLVKGKKTHTPTIELRDKDPDFPNAKVVQPDINKGNKQIAHGINGVL” the “soluble fraction (log2)” value was 0.144. In the case of “HMGALAITPDFVGQTREEAERFLRDLDLSFDIGGKGDRILRQEPVAGQRMNLDQPMKLWVGSMNA”, the “soluble fraction (log2)” value is reported as -0.313. For “HMGANAVAAFTARVRTGPSTGYPVRISVPQGRQVRVISGPYGGWYRVSYQGLTGYTYGGLLRQG”, the “soluble fraction (log2)” value was -0.222. For “HMGAPAISYSKFLEQVDRKNVASVTIYKDGRIDGVMTSGSRFATESPSDPGLVGDLLKAGVEIRAKPP”, the “soluble fraction (log2)” value was 0.144. With “HMGAPVIYELTAESAAGQRIDKYLSGQLADLSRSYLQKLLKDGGVEVNKKPVKSNYKLSEGDQIRLEVPEA” the “soluble fraction (log2)” value was -0.198. With “HMGAQINSPISGTILKYLVKNGDKITKDQPLVNIESMKMENTIKSDKEGIVNNINFKIGDSVNTADTLLTL” the “soluble fraction (log2)” value was 0.22. In the case of “HMGAQKITIPDFSNQEATQVYAELKNMGLEYTESRMNHPSIASGYVIKTEPTKGSEVKAGTTVTVYVSLG”, the “soluble fraction (log2)” value is reported as -0.128. With “HMGARHPLPYPFARAHGLLLEADGERSTLWASTNVSPAALSEVMRKYAVDVIEEEPPETLSQRIAAAYAA” the “soluble fraction (log2)” value was -0.763. For “HMGASFITSSKDNAINIRESATTDSKVIETIKNGEILESTEKSGDWHKVTYYNSEIKKSFTGYIHNSQLK”, the “soluble fraction (log2)” value was -0.151. With “HMGASLVIVPGAGFLRVSASSQTRLDVYSITGMRVRSVDFEPGTTEIELPAGFYIAGGRKFFV” the “soluble fraction (log2)” value was -0.124. With “HMGAYITYEVKPGDTLWDIANKFPGVSADNIKTWNKVDELIKAGERLKINTQTITDYSPDKYPS” the “soluble fraction (log2)” value was -0.575. With “HMGDADDLSRELLQQGLSLKEAVADFERRYLQQAMQRHSSIASVSEALDVHFSTLWRKLVKYNLV” the “soluble fraction (log2)” value was -0.621. For “HMGDADDLTRIKGIGPKLSKTLNELGIYHFRQIAGWQSDEADWVDDYLSFKGRVMREQWIEQAQKFAS”, the “soluble fraction (log2)” value was -0.292. In the case of “HMGDAIPVPDVSGFSEDQAMNNLRKVGLRPKATYVADDNTAKGYVTGTSPAKNIEVAPDSEVIVYVSSGP”, the “soluble fraction (log2)” value is reported as 0.241. For “HMGDAPLITVDKRTIKVNGAKAQIQVYDTTGRLVKNVSPAGKLTLIEMAKPGIFIVHTQSMSFKVVL”, the “soluble fraction (log2)” value was 0.00664. For “HMGDAVYSKVKDLVNTYNALAKQTGKSDLVSISQSRTWMVNDTKAHEVQWNKIGITIEDDQTLTI”, the “soluble fraction (log2)” value was -0.13. For “HMGDLDLVTFGQRLRHLRRSRNMTLSELGERVGRAPSQLSLLENGKREPKLSLLTALAKALDVSVEEL”, the “soluble fraction (log2)” value was 0.178. With “HMGDLVKGKVVGYDPDNVIVDIGAKTNALVPNREAVVEAGDDIKETLKKGNEYEFLIIRDEDEEGEFL” the “soluble fraction (log2)” value was 0.0813. In the case of “HMGDPEYFKKQLGDFMDRFNITSEDIKNLSIAGAINRMMNNAEGEDKTVLSKLLETVNKSGVGNLPAKTI”, the “soluble fraction (log2)” value is reported as -0.144. For “HMGDPVRVDKFLHDMNVGTRSQIRKLIKEKAVFVNDVVAKSGRVKVDPVVDQVRLGEQVITYQ”, the “soluble fraction (log2)” value was 0.0055. With “HMGDPYAILGLLPGASMEDVRHAWRRQAAENHPDRMLQRGAPPEFVEIAREKTAAINAAYARIREELSI” the “soluble fraction (log2)” value was -0.638. With “HMGDTIGEQKAKEIALEHAGLKSSDVTFIRAVLEYDDRNWEYDVEFYDADTYTEYDYEIDAHTGKILSFDH” the “soluble fraction (log2)” value was -0.171. For “HMGDTPVDFSEFIRWVDTGVVDRVELTGNEIVGTSSSGERFSTYAPPQYEGLGNKLIERDIVVVATAA”, the “soluble fraction (log2)” value was -1.21. In the case of “HMGDTVSGTMLNLKPGVRVVHQIFGPGRVEETTGASLAEFRVTVRFEQKGLKTLLLQYAALQVINSEN”, the “soluble fraction (log2)” value is reported as -1.05. With “HMGDVKLNAIYNFLKEFSALNGFPPSVREIGAKFGIKSTSTVHYYLEKLKQSGVIQQEENKKRAVVIN” the “soluble fraction (log2)” value was -0.446. For “HMGDWEDFWEKEARRRKLSLDYQVVRSLSRWSREYDWGEEDVEQFLSQFPEGETVKMEDVELYFE”, the “soluble fraction (log2)” value was -1.41. With “HMGDYDHYVVKVEDTLLNWLVTNVTTMSRNKLKDILAGQGIKVNGKITTKYDYPLTPGMKIAISKTKR” the “soluble fraction (log2)” value was -0.351. For “HMGEAIPVPDIRHKSQADAERLLQDQGLAMMVTDTGYVKTLPANYILEQIPVAGEKVKSGHVVYVIINSG”, the “soluble fraction (log2)” value was 0.0317.
